Assay results taken from US20140017242A1, “ANTI-BRADYKININ B2 RECEPTOR (BKB2R) MONOCLONAL ANTIBODY” (Diamedica, Inc., priority 2010, published 2014).
“And” between values parts separate entries of the source, which are not always exact repeats. Equal entries are not always repeated.

Key:
[1] = tested on: influenza strain A/Brisbane/07 (H1N1); assay type: cell-based, influenza virus
[2] = tested on: Hep G2; assay: MTT Cell Proliferation Assay, Hep G2; assay type: cell-based, human; conditions: 120 hours of exposure
Text: (§1) This Example describes characterization of the cytotoxic activity of herein described anti-BKB2R monoclonal antibodies against a panel of cancer cell lines. BxPC-3 is a human adenocarcinoma cell line originally isolated from the pancreas (pancreatic cancer) (ATCC # CRL-1687; Tan et al., Cancer Invest. 4: 15-23, 1986. PubMed: 3754176). MV-4-11 is a human biphenotypic B myelomonocytic leukemia (mixed-lineage leukemia, MLL-AF4) cell line originally isolated from the peripheral blood (ATCC # CRL-959; Lange et al., Blood 70: 192-199, 1987. PubMed: 3496132). Hep G2 is a human hepatocellular carcinoma cell line isolated from the liver (liver cancer) (ATCC # HB-8065; Aden et al., Nature 282: 615-616, 1979. PubMed: 233137). RS4;11 is a human acute lymphoblastic leukemia (mixed-lineage leukemia, MLL-AF4) cell line isolated from the bone marrow (ATTC # CRL-1873) Stong et al., Blood 65: 21-31, 1985. PubMed: 3917311). HT-29 is a human colorectal adenocarcinoma (ATTC # HTB-38) cell line isolated from the colon (colon cancer). Fogh et al., J. Natl. Cancer Inst. 58: 209-214, 1977. PubMed: 833871). NUGC-4 is a human stomach carcinoma isolated from the stomach paragastiric lymph node (JCRB # JCRB0834; Akiyama et al., Jpn. J. Surg., 18: 438-446, 1988). […]
(§2) The anti-proliferative activity of test compounds against the indicated cell lines was evaluated in vitro using the ATCC's MTT Cell Proliferation Assay (Catalog No. 30-1010K). After the 120 hour incubation with drug (e.g., anti-BKB2R mAb or cisplatin), cell proliferation was measured by addition of MTT reagent to each well and incubation for an additional 4 hrs. […] Optical absorbance (570 nm) of the test wells was measured and then quantitated relative to control wells that received no drug. Results were expressed as percent inhibition versus compound concentration and graphed, as shown in FIGS. 19-25, for cell lines BxPC-3, MV-4;11, HepG2, RS-4;11, HT-29, NUGC-4, and PC-3, respectively.

[3] = tested on: RS-4;11; assay: MTT Cell Proliferation Assay, RS-4;11; assay type: cell-based, human; conditions: 120 hours of exposure
Text: as §1, §2

[4] = tested on: HT-29; assay: MTT Cell Proliferation Assay, HT-29; assay type: cell-based, human; conditions: 120 hours of exposure
Text: as §1, §2

[5] = tested on: ZDF fa/fa rats; assay: 21-day ZDF fa/fa study: serum total cholesterol and triglyceride; assay type: in vivo, rat; conditions: day 21
Experimental: Animals. Male ZDF fa/fa rats were obtained from CRL (Kingston, N.Y.). Upon arrival, rats were seven weeks of age. The rats were housed individually per cage in a room with a photo cycle of 12 hours of light and 12 hours of dark and an ambient temperature of 70-72° F. and fed on regular rodent diet and water ad libitum. At the age of eleven weeks, rats were divided into six groups (Table 5) of eight rats per group based on fasting blood glucose levels. A sub-group of four rats per group was maintained in parallel to the main groups and was dosed similarly for twenty-one days for a hyperinsulinemic-euglycemic clamp study. […]
An oral glucose tolerance test (OGTT) was performed on Day 0, 7, 14 and 21 for each group of the study. Plasma samples were collected at each time point during OGTT to also measure insulin levels. Body weight, food and water intake were measured twice a week. Blood pressure and heart rates were monitored on Day 0, 7, 14 and 21 using a non-invasive tail cuff method (with five readings per rat taken and then averaged). Fasting serum samples were collected on Day 0, 7, 14 and 21 before OGTT for determination of triglyceride and total cholesterol level. Urine samples were collected on Day 7 and 14 for the determination of glycosuria. Glycated (Glycosylated) hemoglobin (HbA1c) was measured at the end of the study. Assay kits for these studies were as presented in Table 6, and were used according to the suppliers' instructions.
The mean change in fasting blood glucose (mg/dL), serum cholesterol (mg/dL) and systolic blood pressure (mm Hg) from baseline (Day 0) to Day 21 was compared between the high-dose (5F12G1, 0.2 mg/kg) and negative control (MG2b-57, 0.2 mg/kg) groups using an analysis of covariance to adjust for baseline levels. The mean HbA1c percentage in high-dose (5F12G1, 0.2 mg/kg) rats was compared to the mean HbA1c percentage for negative control (MG2b-57, 0.2 mg/kg) rats using an unequal-variance, independent two-sample t-test. A significance level of a=0.05 was used for all tests, and all analyses were conducted using SAS statistical software (vs. 9.2, Cary, N.C., U.S.A.).

B1: 5F12G1: murine monoclonal anti-BKB2R antibody (IgG2b,κ), VH comprising SEQ ID NO:1, VL comprising SEQ ID NO:2 (antibody, listed as Mus musculus, V domains shown)
VH: EVKLEESGGGLVQPGGSMKLSCVVSGFTFSDYWMSWVRHSPEMGLEWVAEIRLKSDNYATHYAESVKGRFTISRDDSKSRLYLQINSLRGEDTGIYYCTRDYYAMEYWGQGTSVTVSS
VL: DVVMTQTPLSLPVSLGDQASISCRSSQTIVHSNGKTYLEWYLQKPGQSPKLLIYKVSNRFSGVPDRFSGSGSGTEFTLKISRVETEDLGVYYCFQASHVPYTFGGGTKLEIK
Question: What does the source list for B1?
Answer: +/− Result FAM [1]: Positive; dose dependence of the reduction of viral titer / viral genomic copies ([1]; A549 cells, qRT-PCR, FIGS. 5 to 8): decreased viral titer in a dose-dependent manner; reduction in viral titer ([1]; highest tested concentration of 100 μg/ml): 100 fold; Ct FAM ([1]; listed as G1): 36.21 and 30.38 and 35.93 and 30.08 and 37.95 and 32.97 and 34.96 and 34.02; EC 50 Values (ng/ml) Hep G2 [2]: 21000 ng/mL; EC 50 Values (ng/ml) RS-4;11 [3]: 15000 ng/mL; EC 50 Values (ng/ml) HT-29 [4]: 16000 ng/mL; serum cholesterol ([5]; 0.008 mg/kg s.c. every 3 days): 167 ± 7 mg/dL; serum cholesterol ([5]; 0.04 mg/kg s.c. every 3 days): 162 ± 18 mg/dL; decrease of serum cholesterol from baseline ([5]; 0.2 mg/kg s.c. every 3 days): 12 ± 8 mg/dL; serum cholesterol ([5]; 0.2 mg/kg s.c. every 3 days): 145 ± 26 mg/dL
